Values of other authors as cited in PMC6197867.

What was measured:
[1] = molecular target: LEN light chain variable domain VL (Homo sapiens) (UniProt P06312)
[2] = molecular target: SMA light chain variable domain VL (Homo sapiens) (UniProt P06312)

| Substance | Kd [1] [µM] | Kd [2] [µM] |
| --- | --- | --- |
| LEN light chain variable domain VL (from UniProt P06312) | 10 | – |
| SMA light chain variable domain VL (from UniProt P06312) | – | 40 |
